From publication PMC2920321, “Characterization of ftsZ Mutations that Render Bacillus subtilis Resistant to MinC” (PLoS ONE, 2010)

Molecular target: the molecule itself
Experiment: sedimentation of polymers by ultracentrifugation; FtsZ 10 µM, pH 6.5 buffer, with ZapA (10 µM), without DEAE-dextran

B1: FtsZ8 (FtsZ S219L) (natural protein, B. subtilis, UniProt P17865 1-382, looked up)
chain: MLEFETNIDGLASIKVIGVGGGGNNAVNRMIENEVQGVEYIAVNTDAQALNLSKAEVKMQIGAKLTRGLGAGANPEVGKKAAEESKEQIEEALKGADMVFVTAGMGGGTGTGAAPVIAQIAKDLGALTVGVVTRPFTFEGRKRQLQAAGGISAMKEAVDTLIVIPNDRILEIVDKNTPMLEAFREADNVLRQGVQGISDLIATPGLINLDFADVKTIMLNKGSALMGIGIATGENRAAEAAKKAISSPLLEAAIDGAQGVLMNITGGTNLSLYEVQEAADIVASASDQDVNMIFGSVINENLKDEIVVTVIATGFIEQEKDVTKPQRPSLNQSIKTHNQSVPKREPKREEPQQQNTVSRHTSQPADDTLDIPTFLRNRNKRG
notes: FtsZ, Bacillus subtilis, mutant ftsZ8; source: overexpression plasmid pSG5333 (Ptac-ftsZ8, derivative of pCXZ); purified essentially as described [21]
Question: Does B1 bind?
Answer: Result: binds
